Measurements taken from patent US20250376709A1, “PAPB AS A BIMOIETY-DEPENDENT THIOETHER INSTALLATION TOOL” (UNIVERSITY OF UTAH RESEARCH FOUNDATION, priority 2022, published 2025).
Numbering of substitutions follows the chain as printed. Square brackets hold non-standard residues; d marks the D form. Ends that are not written are not given here.

Legend:
[1] = system: PapB; assay: Enzymatic reactions of msPapA peptides with PapB (thioether crosslinking, U/HPLC-MS readout); assay type: biochemical; conditions: for extent of conversion to crosslinked peptide by PapB (in words): incubation with PapB, SAM and reductant, MS isotopic envelope; for substrate conversion: after 300 s; for substrate converted to crosslinked product: assessed from MS isotopic envelope after PapB
Protocol: Assays were conducted in a Coy Laboratories anaerobic chamber with 98% N2/2% H2 atmosphere at room temperature. All reactions contained 0.05 M PIPES·NaOH (pH 7.4), 2 mM DTT, 2.4 mM SAM (enzymatically synthesized and purified as previously described (deGruyter, J. N., et al. Biochem. 2017, 56 (30), 3863-3873)), ˜100-400 μM msPapA variants (concentration determined by peptide dry weight or by spectroscopic analysis in the case of Y19W), and […]-10 μM PapB. Either dithionite (dT) or flavodoxin (FldA), flavodoxin reductase (FPR) and NADPH were used to reduce PapB. For the assays that used chemical reductant, the total concentration was 2 mM dT. For the assays that used the biological reducing system, the mixtures contained 25 μM FldA, 2 μM FPR and 2 mM NADPH. The total volume of the reactions ranged from 0.1 mL for initial screenings to 0.5 mL for MS/MS Collision Induced Dissociation (CID) fragmentation experiments described below. Control reactions in the absence of dT, SAM and PapB were also conducted. Reactions were initiated with the addition of PapB and quenched at times ranging from 15 s to 2 h by the addition of 10% of the reaction volume of 30% (w/v) trichloroacetic acid (TCA, ACS grade). The samples were centrifuged at 16,000×g for 10 min in a microcentrifuge to pellet the precipitated PapB.
The assays were analyzed using either a Vanquish UHPLC with a diode-array detector connected to a Q-Exactive mass spectrometer or an Ultimate 3000 HPLC with a diode-array detector connected to a LTQ OrbiTrap XL mass spectrometer. Each was operated in positive ion mode, the FT analyzer was set to 100,000 resolution, 1 microscan, and 200 ms maximum injection time. Xcalibur software was used to analyze data. A 20 μL aliquot was injected onto a Hypersil GOLD C18 column (2.1 mm×150 mm, 1.9 μm particle size) (Thermo Fisher) pre-equilibrated in 0.1% (v/v) LC-MS Optima TFA (Fisher in LC-MS Optima water (Fisher). Chromatographic steps were carried out at 0.2 mL/min with buffer A containing 0.1% (v/v) TFA in Optima water and buffer B containing Optima grade acetonitrile with 0.1% (v/v) TFA. The separation consisted of washing with 100% A from 0 to 3 min, followed by a linear gradient from 100% to 0% A from 3 to 6 min, washing with 0% A from 6 to 10 min, and reequilibration with 100% A from 10 to 14 min. […]

[2] = system: T1, leader-^DCSANDA
T1 sequence: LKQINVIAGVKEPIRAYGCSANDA

[3] = system: T2, Leader-DSANCA
T2 sequence: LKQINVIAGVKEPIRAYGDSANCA

[4] = system: T3, Leader-CSAANDA
T3 sequence: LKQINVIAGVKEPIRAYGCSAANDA

[5] = system: T4, Leader-CDSNNAANA
T4 sequence: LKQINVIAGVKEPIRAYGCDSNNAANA

[6] = system: T5, Leader-CSAAANDA
T5 sequence: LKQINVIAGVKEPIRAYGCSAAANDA

[7] = system: T6, Leader-CSAAAANDA
T6 sequence: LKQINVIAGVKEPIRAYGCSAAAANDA

[8] = system: T7, Leader-AAACSACDAADA
T7 sequence: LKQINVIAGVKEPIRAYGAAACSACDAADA

[9] = system: T8, Leader-AAAASACDAADA
T8 sequence: T7 sequence with C22A

[10] = system: T9, leader-CSAN^DDA
T9 sequence: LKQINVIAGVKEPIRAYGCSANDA

[11] = system: T10, Leader-AAACSANDACSANDA
T10 sequence: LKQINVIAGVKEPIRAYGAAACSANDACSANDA

[12] = system: T11, Leader-CSNDAAA
T11 sequence: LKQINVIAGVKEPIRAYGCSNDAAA

[13] = system: T12, Leader-AAACSANDA
T12 sequence: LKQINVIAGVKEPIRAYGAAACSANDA

[14] = system: T13, leader-^DCSAN^DDA
T13 sequence: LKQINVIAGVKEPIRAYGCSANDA

[15] = system: T14, Y17W msPapA
T14 sequence: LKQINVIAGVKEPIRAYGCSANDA

[16] = system: T15, Leader-^DDSAN^DCA
T15 sequence: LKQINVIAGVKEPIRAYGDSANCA

[17] = system: T16, Leader-DSAN^DCA
T16 sequence: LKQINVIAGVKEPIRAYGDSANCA

[18] = system: T17, Leader-AAACSAADAADA
T17 sequence: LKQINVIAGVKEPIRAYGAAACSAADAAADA

[19] = system: T18, Leader-CSDNNAAA
T18 sequence: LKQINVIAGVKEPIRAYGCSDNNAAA

[20] = system: T19, minimal substrate PapA (msPapA)
T19 sequence: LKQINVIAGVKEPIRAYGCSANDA

[21] = system: T20, Leader-^DDSANCA
T20 sequence: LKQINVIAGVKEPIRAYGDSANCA

How did the “extent of conversion to crosslinked peptide by PapB (in words)” value (shortened to “extent of conversion”) [1] turn out when LKQINVIAGVKEPIRAYGCDSNNAANA [CX0D] was run?
Its value is “did not fully react”.

Which “extent of conversion” value [1] does the source give for LKQINVIAGVKEPIRAYGCSAAAANDA [CX6D] here?
Its value is “did not fully react”.

“LKQINVIAGVKEPIRAYGCSANDA [msPapA, reference compound]” was tested. Which “kinetics with dT relative to biological reducing system” value ([1]; 430 nM PapB, 191 μM peptide) did it give?
The value was “roughly 3 fold”.

What about the substrate conversion ([1]; biological reducing system (FldA/FPR/NADPH)) of the same substance?
The substrate conversion was 100%.

What about the substrate conversion ([1]; chemical reducing system (dT)) of the same substance?
The substrate conversion was 100%.

What about the “turnover number (approximation of kcat for PapB)” value ([1]; dithionite (dT) as reductant, 430 nM PapB, 191 μM peptide, linear portion of curve, FIG. 5 names Y17W msPapA) of the same substance?
Its value is 7.4 ± 0.1 s⁻¹.

What about the “extent of conversion” value [1] of the same substance?
Its value is “complete conversion”.

For “LKQINVIAGVKEPIRAYGCSAN^DDA [leader-CSAN^DDA]”, which “extent of conversion” value [1] is on record?
The value was “conversion is not complete”.

“LKQINVIAGVKEPIRAYGENLYFQ^DFCF^DWKTET [octreotide analog]” was tested. Which “substrate converted to crosslinked product” value [1] did it give?
The value was ~75%.

For “LKQINVIAGVKEPIRAYGPCSAN^DDA [leader-^DCSAN^DDA]”, which “substrate converted to crosslinked product” value [1] is on record?
Its value is ≥ 15%.

What about the “extent of conversion” value [1] of the same substance?
Its value is “processed inefficiently”.

How did the “extent of conversion” value [1] turn out when “LKQINVIAGVKEPIRAYG^DCSANDA (LKQINVIAGVKEPIRAYG[dC]SANDA) [leader-^DCSANDA]” was run?
Its value is “full conversion”.

Which “thioether crosslinking (loss of 2 Da, MS)” value [2] does the source give for PapB here?
Its value is “full conversion to the crosslinked peptide is seen, as evidenced by the loss of 2 Da”.

And the “thioether crosslinking (MS)” value [3]?
The value was “we were unable to observe any crosslinked product with the transposed peptides, either with L- or D-amino acids”.

And the “thioether crosslinking (loss of 2 Da, MS)” value [4]?
Its value is “the reactions with 1-5 intervening residues appear to go to completion”.

What about the “thioether crosslinking (loss of 2 Da, MS)” value [5] of the same substance?
Its value is “CX0D (FIG. 8B) and CX6D (FIG. 8C) did not fully react--suggesting that PapB does not processes these motifs efficiently”.

What about the “thioether crosslinking (loss of 2 Da, MS)” value [6] of the same substance?
The value was “the reactions with 1-5 intervening residues appear to go to completion”.

What about the “thioether crosslinking (loss of 2 Da, MS)” value [7] of the same substance?
Its value is “CX0D (FIG. 8B) and CX6D (FIG. 8C) did not fully react--suggesting that PapB does not processes these motifs efficiently”.

What about the “thioether crosslinking (loss of 4 Da, MS)” value [8] of the same substance?
Its value is “all the peptides that were examined were efficiently crosslinked by the enzyme”.

What about the “thioether crosslinking (loss of 2 Da, MS)” value [9] of the same substance?
The value was “all the peptides that were examined were efficiently crosslinked by the enzyme”.

What about the “thioether crosslinking (loss of 2 Da, MS)” value [10] of the same substance?
Its value is “significant substrate turnover is observed as well, but the conversion is not complete”.

And the “thioether crosslinking (loss of 4 Da, MS)” value [11]?
Its value is “all the peptides that were examined were efficiently crosslinked by the enzyme”.

And the “thioether crosslinking (loss of 2 Da, MS)” value [12]?
The value was “the reactions with 1-5 intervening residues appear to go to completion”.

And the “thioether crosslinking (loss of 2 Da, MS)” value [13]?
The value was “all the peptides that were examined were efficiently crosslinked by the enzyme”.

And the “substrate converted to crosslinked product (MS)” value [14]?
Its value is “at least ˜15% of the substrate is converted to product”.

What about the “turnover number with dithionite (approximation of kcat)” value [15] of the same substance?
The value was 7.4±0.1 s^-1 with dT.

What about the “turnover number with the biological reducing system FldA/FPR/NADPH (approximation of kcat)” value [15] of the same substance?
Its value is 2.6=0.2 s^-1 are estimated with the biological reducing system.

What about the “thioether crosslinking (MS)” value [16] of the same substance?
Its value is “we were unable to observe any crosslinked product with the transposed peptides, either with L- or D-amino acids”.

And the “thioether crosslinking (MS)” value [17]?
Its value is “we were unable to observe any crosslinked product with the transposed peptides, either with L- or D-amino acids”.

What about the “thioether crosslinking (loss of 2 Da, MS)” value [18] of the same substance?
The value was “all the peptides that were examined were efficiently crosslinked by the enzyme”.

What about the “thioether crosslinking (loss of 2 Da, MS)” value [19] of the same substance?
The value was “the reactions with 1-5 intervening residues appear to go to completion”.

What about the “thioether crosslinking (loss of 2 Da, HR-MS)” value [20] of the same substance?
The value was “complete conversion of msPapA to a singly crosslinked peptide is routinely observed using 0.1 nmol PapB and 20 mmol msPapA in 5 min”.

What about the “thioether crosslinking (loss of 2 Da, MS)” value [20] of the same substance?
Its value is “the reactions with 1-5 intervening residues appear to go to completion”.

And the “thioether crosslinking (MS)” value [21]?
The value was “we were unable to observe any crosslinked product with the transposed peptides, either with L- or D-amino acids”.
